Experimental data taken from article PMC9541529 (The Febs Journal, 2022).

T1: Sup35 NM prion protein (NM domains) (S. cerevisiae, UniProt P05453 1-253)
T1 sequence: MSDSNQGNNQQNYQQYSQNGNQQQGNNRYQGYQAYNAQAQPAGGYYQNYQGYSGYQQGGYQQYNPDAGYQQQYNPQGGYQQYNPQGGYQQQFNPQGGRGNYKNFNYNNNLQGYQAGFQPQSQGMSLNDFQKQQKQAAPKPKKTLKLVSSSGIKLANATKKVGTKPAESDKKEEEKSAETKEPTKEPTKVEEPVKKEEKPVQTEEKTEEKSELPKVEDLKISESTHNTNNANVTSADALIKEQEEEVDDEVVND

B1: Hsp104 N‐terminal domain (NTD), wild type (domain or fragment)
chain: MNDQTQFTERALTILTLAQKLASDHQHPQLQPIHILAAFIETPEDGSVPYLQNLIEKGRYDYDLFKKVVNRNLVRIPQQQPAPAEITPSYALGKVLQDAAKIQKQQKDSFIAQDHILFALFNDSSIQQIFKEAQVDIEAIKQQALELRGNTR
B2: PhoA^349–471 (unfolded PhoA protein fragment, residues 349–471) (domain or fragment)
chain: DKQDHAANPCGQIGETVDLDEAVQRALEFAKKEGNTLVIVTADHAHASQIVAPDTKAPGLTQALNTKDGAVMVMSYGNSEEDSQEHTGSQLRIAAYGPHAANVVGLTDQTDLFYTMKAALGLK
B3: α‐lactalbumin (natural protein)
chain: EQLTKCEVFRELKDLKGYGGVSLPEWVCTTFHTSGYDTQAIVQNNDSTEYGLFQINNKIWCKDDQNPHSSNICNISCDKFLDDDLTDDIMCVKKILDKVGINYWLAHKALCSEKLDQWLCEKL

Experiments:
[1] = target: T1, Sup35 NM prion protein (NM domains); test: NMR titration
[2] = target: tau 2N4R (human, UniProt P10636-8 1-441); test: co-sedimentation
[3] = target: B1; test: NMR titration

## B1
[1]
  binding result: binds
[2]
  binding result: binds

## B2
[3]
  binding result: binds

## B3
[3]
  binding result: binds
